Earlier results as cited in paper PMC10357296.

Target: IL-18 (Homo sapiens) (UniProt Q14116)
Sequence (Q14116 37-193): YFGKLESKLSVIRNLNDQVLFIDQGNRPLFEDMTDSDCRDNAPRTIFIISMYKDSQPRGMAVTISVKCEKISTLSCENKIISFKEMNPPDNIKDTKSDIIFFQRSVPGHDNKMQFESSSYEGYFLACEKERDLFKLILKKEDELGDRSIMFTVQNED

Chain of IL-18BP (O95998 31-194): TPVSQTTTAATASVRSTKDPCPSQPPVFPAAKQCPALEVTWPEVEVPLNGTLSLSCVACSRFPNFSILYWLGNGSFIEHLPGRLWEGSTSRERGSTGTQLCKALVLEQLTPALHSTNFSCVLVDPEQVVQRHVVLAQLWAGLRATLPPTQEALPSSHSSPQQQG

Substance: IL-18BP (from UniProt O95998)
- Kd: < 1 nM
